Columns and labels:
[1] = molecular target: T1, Anti-CD28 Fab (SEQ ID NOs: 202, 203); test: phage ELISA, Fab on plate;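 further: crude clonal phage supernatants added to wells pretreated with blocking buffer with or without CD28 antigen, then bound phage read out via HRP-linked anti-M13 antibody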
T1 construct: biotinylated and captured on neutravidin coated plates in the phage ELISA
T1 sequence (VH, as listed by the source, chain 1 of 2): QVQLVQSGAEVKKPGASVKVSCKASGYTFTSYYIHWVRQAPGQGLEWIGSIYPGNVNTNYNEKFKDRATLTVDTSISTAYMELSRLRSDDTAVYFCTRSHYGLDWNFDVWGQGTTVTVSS
T1 sequence (VL, as listed by the source, chain 2 of 2): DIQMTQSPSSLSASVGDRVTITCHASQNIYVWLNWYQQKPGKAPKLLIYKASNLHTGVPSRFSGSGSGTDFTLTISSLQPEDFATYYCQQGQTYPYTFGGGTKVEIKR

[2] = molecular target: T1, Anti-CD28 Fab (SEQ ID NOs: 202, 203); test: phage ELISA, Fab on plate, CD28 antigen as competitor
Protocol: After panning, phage infected bacteria were plated out and colonies picked into 96 well blocks. Clonal phage was then amplified and separated from bacterial cells via centrifugation.
Clonal phage were harvested as crude supernatants and screened via standard ELISAs. […] Prior to the addition of clonal phage, wells were incubated with blocking buffer and CD28 antigen or blocking buffer alone. Without washing or aspirating, clonal phage supernatants were then added to the wells and incubated for a short time. Wells were then washed followed by detection of bound phage using a horse radish conjugated anti-M13 antibody. Clonal phage of interest were then sent for sequence analysis.

[3] = molecular target: Anti-CD28 Fab (SEQ ID NOs: 202, 203); test: phage binding ELISA on captured Fab;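 further: clonal phage supernatants added briefly to wells pre-incubated with CD28 antigen or with blocking buffer only, then washed, bound phage read by ELISA using HRP-coupled anti-M13 antibody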
Target sequence in this assay (VH, as listed by the source, chain 1 of 2): as the sequence (VH, as listed by the source, chain 1 of 2) above
Target sequence in this assay (VL, as listed by the source, chain 2 of 2): as the sequence (VL, as listed by the source, chain 2 of 2) above
Protocol: Clonal phage were harvested as crude supernatants and screened via standard ELISAs. […] Prior to the addition of clonal phage, wells were incubated with blocking buffer and CD28 antigen or blocking buffer alone. Without washing or aspirating, clonal phage supernatants were then added to the wells and incubated for a short time. Wells were then washed followed by detection of bound phage using a horse radish conjugated anti-M13 antibody.

Row | Binder | Anti-CD28 Fab (SEQ ID NOs: 202, 203) signal [1] | Anti-CD28 Fab signal in the presence of CD28 [2] | Anti-CD28 Fab (SEQ ID NOs: 202, 203) signal [3]
1 | YCDGHLMEYKAKCL [Phage-613] | 1.41 | 0.06 | –
2 | YCDGHSLEYIDKCM [Phage-607] | 1.42 | 0.09 | –
3 | YCVGHLPQYMQKCL [Phage-599] | 1.43 | 0.06 | –
4 | YCDGHLPEYIAKCQ [Phage-600] | 1.43 | 0.07 | –
5 | YCAGHAEEYLEKCL [Phage-610] | 1.41 | 0.15 | –
6 | YCEGHLSEYIGKCL [Phage-811] | – | – | 0.87
7 | YCSGHLPEYMDKCL [Phage-619] | 1.39 | 0.07 | –
8 | YCDGHSPEHMGKCL [Phage-615] | 1.4 | 0.09 | –
9 | YCLGHSWPYIHKCY [Phage-602] | 1.43 | 0.07 | –
10 | YCDGHSLEYIEKCL [Phage-601] | 1.43 | 0.06 | –
11 | YCEGHDWMYMEKCL [Phage-801] | – | – | 0.91
12 | YCEGHISEYMGKCL [Phage-808] | – | – | 0.88
13 | YCDGHSPAFIQKCL [Phage-606] | 1.42 | 0.08 | –
14 | YCEGHSQQYMQKCL [Phage-605] | 1.42 | 0.08 | –
15 | YCEGHSQQYMWKCL [Phage-711] | 1.17 | 0.05 | –
16 | YCEGHSYQYMQKCL [Phage-715] | 1.16 | 0.06 | –
17 | YCEGHSQTYMWKCL [Phage-709] | 1.17 | 0.08 | –
18 | YCDGHFTWYMAKCL [Phage-809] | – | – | 0.87
19 | YCDGHTEAYMSKCL [Phage-807] | – | – | 0.88
20 | YCDGHSLEYMLKCL [Phage-620] | 1.39 | 0.07 | –
21 | YCDGHQPQYMSKCL [Phage-628] | 1.38 | 0.09 | –
22 | YCEGHLDEYLQKCL [Phage-626] | 1.38 | 0.07 | –
23 | YCDGHTAQYMWKCL [Phage-812] | – | – | 0.87
24 | YCDGHDARYMEKCL [Phage-616] | 1.4 | 0.06 | –

Row | Binder | Anti-CD28 Fab (SEQ ID NOs: 202, 203) signal [1] | Anti-CD28 Fab signal in the presence of CD28 [2] | Anti-CD28 Fab (SEQ ID NOs: 202, 203) signal [3]
25 | YCQGHSPNYITKCF [Phage-608] | 1.41 | 0.06 | –
26 | YCDGHLDEYMLKCL [Phage-603] | 1.43 | 0.06 | –
27 | YCDGHAEQYMSKCL [Phage-623] | 1.38 | 0.07 | –
28 | YCDGHAPEYLGKCL [Phage-609] | 1.41 | 0.06 | –
29 | YCDGHIAEYRSKCL [Phage-810] | – | – | 0.87
30 | YCEGHSAEYIAKCL [Phage-614] | 1.41 | 0.09 | –
31 | YCEGHSAEYIGKCL [Phage-738] | 1.08 | 0.07 | –
32 | YCDGHSAEYIAKCL [Phage-662] | 1.31 | 0.05 | –
33 | YCDGHSPEYMQKCL [Phage-617] | 1.4 | 0.53 | –
34 | YCDGHLPEYMQKCL [Phage-643] | 1.35 | 0.08 | –
35 | YCDGHSHEYMQKCL [Phage-611] | 1.41 | 0.06 | –
36 | YCDGHLQEYMQKCL [Phage-627] | 1.38 | 0.06 | –
37 | YCEGHSQEYKAKCF [Phage-802] | – | – | 0.9
38 | YCDGHVLMYLAKCL [Phage-803] | – | – | 0.9
39 | YCDGHTPEYMWKCL [Phage-604] | 1.43 | 0.06 | –
40 | YCDGHTKEYMWKCL [Phage-736] | 1.1 | 0.06 | –
41 | YCEGHLAAYMYKCL [Phage-805] | – | – | 0.89
42 | YCEGHHPWYVQKCL [Phage-621] | 1.39 | 0.07 | –
43 | YCNGHLPEYMSKCI [Phage-618] | 1.4 | 0.07 | –
44 | YCDGHNWEYMEKCL [Phage-622] | – | 0.05 | –
45 | YCAGHSAEYMSKCL [Phage-612] | 1.41 | 0.07 | –
46 | YCDGLFQLYMMKCL [Phage-624] | 1.38 | 0.07 | –
47 | YCDGHAPEYIQKCL [Phage-625] | 1.38 | 0.06 | –
48 | YCDGHSTLYMQKCL [Phage-806] | – | – | 0.88
